These results are taken from paper PMC7764042.

For test [1], the target named is IFNAR2 ECD (Homo sapiens) (UniProt P48551). The note with it: cited from earlier work.
The target in test [2] is S100P (Homo sapiens) (UniProt P25815). The note with it: cited from earlier work.
In test [3] the target is Tag7 (Homo sapiens) (UniProt O75594). The note with it: cited from earlier work.
Test [4] deals with recombinant human interferon alfa-2b (human) (UniProt P01563). Nature of the test: SPR; IFN-α immobilised by amine coupling; S100 proteins as analyte; 25 °C; 10 mM HEPES, 150 mM NaCl, 0.01% TWEEN 20, pH 7.4.

A value given as a limit tells only on which side of the number the result lay.

Consider IFN-β (from UniProt P01574), for which the dissociation constant (Kd) in test [1] is < 0.1 nM; in test [2] it was 0.3 nM.

For the substance S100A4 (from UniProt P26447), the Kd in test [3] is 1 nM. As to “recombinant human S100A1 (from UniProt P23297 2-94) (natural protein)”, the Kd in test [4] was > 10000 nM. The same measure, in the same setting: then “recombinant human S100A4 (from UniProt P26447 1-101) (natural protein)”, with > 10000 nM.

Usually Kd stands for a measure of binding affinity in units of concentration.
